Article PMC10142772

Target: D. officinale MYB5 (DoMYB5), R2R3-MYB transcription factor (Dendrobium officinale)
Sequence (main, as listed by the source): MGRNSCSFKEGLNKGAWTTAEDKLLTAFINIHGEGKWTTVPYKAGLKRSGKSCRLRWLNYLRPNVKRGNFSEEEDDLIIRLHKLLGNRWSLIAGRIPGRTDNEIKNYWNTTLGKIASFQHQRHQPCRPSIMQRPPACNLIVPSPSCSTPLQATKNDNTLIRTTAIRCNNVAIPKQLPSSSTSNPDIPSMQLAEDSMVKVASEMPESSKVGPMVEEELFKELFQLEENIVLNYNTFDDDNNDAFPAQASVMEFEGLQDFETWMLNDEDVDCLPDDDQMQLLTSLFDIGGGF

D. officinale bHLH24 (DobHLH24), bHLH transcription factor (natural protein)
dual-luciferase assay in tobacco leaves: activity of the DoCHS promoter on co-expression of DoMYB5 and DobHLH24, against the control group (times higher than the control group): 4.8
dual-luciferase assay in tobacco leaves: activity of the DoDFR promoter on co-expression of DoMYB5 and DobHLH24, against the control group (times higher than the control group): 2.5
